Test results reported in patent publication US20060246095A1, “Multiepitope polypeptides for cancer immunotherapy” (HADASIT MEDICAL RESEARCH SERVICES & DEVELOPMENT LTD., priority 2003, published 2006).

Legend:
Format in all cases: cell-based, human
[1] = system: TIL 1383 (A2 restricted tyrosinase epitope 369-377); experiment: Recognition assay for peptide presentation by DC (IFN-γ release ELISA), TIL 1383
Description: (§1) Dendritic cells were isolated from cytopheresis MNCs of melanoma patients with the HLA haplotypes HIA-A*0201 and HLA-DRβ1*0401. DC were generated from plastic adherent PBMCs cultured in RPMI with 10% human AB-serum, L-glutamine, penicillin-streptomycin, supplemented with GM-CSF 1000 IU/ml and IL-4 1000 IU/ml. By day 6, immature DC were harvested for electroporation.
(§2) 2.5-3×10^6 DC were re-suspended in 100 μl nucleofector solution and added to 5 μg of DNA plasmid in 2-mm electrode gap cuvettes. Transfected DC were immediately plated with CM containing GM/IL4 or let mature using TNFα 100 ng/ml and PGE2 1000 ng/ml. GFP-transfected DCs were collected 16-24 hours later for FACS analysis.
(§3) DC were pulsed with 1 μg/ml of the relevant peptides at 1×10^6 cells/ml. Stimulants were added after 1 hour incubation without washing the peptide.
TIL 1383 which recognizes the A2 restricted tyrosinase epitope 369-377.
(§4) T cell clones were co-incubated with DC in flat 96-well plate for 24 hours. DC were plated immediately after their transfection or pulsing in 6 separated plates, in the presence of GM CSF and IL-4. 1×10^5 T cells were added to 1×10^5 pulsed or transfected DC. In the longitudinal study, T cell clones were added to the transfected/pulsed DC at the following time points: T0=immediately, +12=after 12 hours, 24, 36, 48 and 72 hours. Supernatants were collected after overnight incubation. Interferon gamma release assay was performed to evaluate T cell stimulation using the ELISA method, results are presented in pg/ml.
(§5) Lactacystin was added to DC at concentrations of 25 μM and 50 μM, 4 hours post transfection. DC were incubated with lactacystin for 70 minutes and then washed twice.
(§6) Responding T cells were added after washing the lactacystin and co-incubated. Supernatents were collected after 20 hours.
(§7) For recognition assay of DC epitope presentation, 1×10^5 cells from different T cell clones, that were grown from PBMCs of patients, and were restricted to particular melanoma antigen peptides, were co-incubated with 1×10^5 pulsed or transfected DC, in the presence of GM-CSF and IL-4. T cell clones were added to the transfected/pulsed DC at the following time points: T=0 immediately, T=12, 24, 36, 48, 72 hours. Supernatant was collected after overnight incubation and was subjected to interferon gamma release assay, in order to evaluate the specific T cell activity towards the particular peptide presented by the DC cells.
(§8) The results shown in the following tables represent the amount of Interferon-γ (pg/ml) secreted to the culture medium as an index for T cell stimulation.

[2] = system: DC with CM (no T cell clone); experiment: Recognition assay, CM in place of a T cell clone (IFN-γ background of DC); conditions: CM instead of T cell clone
Description: as §1, §2, §3, §4, §7, §8

[3] = system: T cell clone CK3H6 (A2 restricted gp100 epitope 209-217); experiment: Recognition assay for peptide presentation by DC (IFN-γ release ELISA), T cell clone CK3H6; conditions: CK3H6
Description: as §1, §2, §3
CK3H6 which recognizes the A2 restricted gp100 epitope 209-217.
as §4, §5, §6, §7, §8

[4] = system: T cell clone BR-B8 (DR4-restricted gp100 epitope 44-59); experiment: Recognition assay for peptide presentation by DC (IFN-γ release ELISA), clone BR-B8; conditions: transfected DC, BR-B8
Description: as §1, §2
pcDNA-MEP and pcDNA-gp100 were co-transfected to detect Class II antigen presentation as an internal control.
BR-B8 which recognizes the DR4-restricted gp100 epitope 44-59.
as §4, §5, §6
For recognition assay of DC epitope presentation, 1×10^5 cells from different T cell clones, that were grown from PBMCs of patients, and were restricted to particular melanoma antigen peptides, were co-incubated with 1×10^5 pulsed or transfected DC, in the presence of GM-CSF and IL-4. […]

[5] = system: T cell clone RB-154 (gp100 154-162 peptide); experiment: Recognition assay for peptide presentation by DC (IFN-γ release ELISA), clone RB-154; conditions: T = 0 hours, RB-154
Description: as §1, §2, §3
as §4, with “Interferon gamma release assay was performed to evaluate T cell stimulation using the ELISA method, results are presented in pg/ml.” left out

[6] = system: T cell clones specific for different gp100 and MART-1 antigens; experiment: Uptake of MEP protein by DC and presentation to T cell clones (IFN-γ secretion, FIG. 2); conditions: DC incubated with protein 4 hours
Description: DC incubated with MEP-Mel protein were able to specifically stimulate T cell clones reactive to different MEP epitopes of gp100 and MART-1. T cell stimulation was estimated by the amount of IFN-γ secreted to the culture medium (pg/ml).
T cell clones tested: GP 100-209a and 209b specific for gp100 209-217 epitope, GP 100-280 specific for gp100 280-288 epitope, GP 100-154 specific for a gp100 epitope not present in MEP (used as control) and MART-1 specific for the epitope 27-35.
Immature DC were incubated with MEP protein for 4 hours. After DC maturation, dendritic cells were incubated in the presence of T cell clones specific for different gp100 and MART-1 antigens. T cell stimulation was estimated by measuring the interferon gamma (IFN-γ) secretion to the medium. […] A MART-1 specific T cell clone was also found to be stimulated.

[7] = system: TIL 1940 (A2 restricted MART-1 epitope 27-35); experiment: Recognition assay for peptide presentation by DC (IFN-γ release ELISA), TIL 1940
Description: as §1, §2, §3
TIL 1940 which recognizes the A2 restricted MART-1 epitope 27-35.
as §4, §5, §6, §7, §8

[8] = transfected DC, Lactacystin 25 μM
[9] = transfected DC, Lactacystin 50 μM
[10] = transfected or peptide-pulsed DC, Donor 1, T = 12 hours
[11] = transfected or peptide-pulsed DC, Donor 1, T = 48 hours
[12] = transfected or peptide-pulsed DC, Donor 1, T = 72 hours
[13] = transfected or peptide-pulsed DC, Donor 2, T = 12 hours
[14] = transfected or peptide-pulsed DC, Donor 2, T = 24 hours
[15] = transfected or peptide-pulsed DC, Donor 2, T = 36 hours
[16] = transfected or peptide-pulsed DC, Donor 2, T = 48 hours
[17] = transfected or peptide-pulsed DC, Donor 2, T = 72 hours

B1: MEP-mel: melanoma multiepitope polypeptide, SEQ ID NO: 2 or 57; in Tables 2-9 delivered by transfecting DC with pcDNA3-MEP-Mel plasmid (protein)
chain: PGTMGSCRKSYYLEPGPVTVRKSYLIMDQVPFSVRKSYLYMDGTMSQVRKSYLAGIGILTVRKSYYLEPGPVTVALLIMDQVPFSVALLYMDGTMSQVALLLAGIGILTVSSLYLEPGPVTVAAYIMDQVPFSVSSLYMDGTMSQVAAYLAGIGILTV
Interferon-γ secreted to the culture medium ([1]; transfected DC from donor 1, T = 0 hours, TIL 1383): 111 pg/mL | Interferon-γ secreted to the culture medium ([1]; transfected DC from donor 2, T = 0 hours, TIL 1383): 387 pg/mL | Interferon-γ secreted to the culture medium ([1]; transfected DC, Lactacystin 0, TIL1383): 229 pg/mL | Interferon-γ secreted to the culture medium ([1]; transfected DC, Lactacystin 25 μM, TIL1383): 25 pg/mL | Interferon-γ secreted to the culture medium ([1]; transfected DC, Lactacystin 50 μM, TIL1383): 0 pg/mL | Interferon-γ secreted to the culture medium ([2]; transfected DC, Donor 1, T = 24 hours): 94 pg/mL | Interferon-γ secreted to the culture medium ([2]; transfected DC, Donor 1, T = 36 hours): 102 pg/mL | Interferon-γ secreted to the culture medium ([2]; transfected DC, Lactacystin 0): 5 pg/mL | Interferon-γ secreted to the culture medium [2, 8]: 0 pg/mL | Interferon-γ secreted to the culture medium [2, 9]: 51 pg/mL | Interferon-γ secreted to the culture medium [2, 10]: 120 pg/mL | Interferon-γ secreted to the culture medium [2, 11]: 33 pg/mL | Interferon-γ secreted to the culture medium [2, 12]: 18 pg/mL | Interferon-γ secreted to the culture medium [2, 13]: 248 pg/mL | Interferon-γ secreted to the culture medium [2, 14]: 292 pg/mL | Interferon-γ secreted to the culture medium [2, 15]: 191 pg/mL | Interferon-γ secreted to the culture medium [2, 16]: 260 pg/mL | Interferon-γ secreted to the culture medium [2, 17]: 38 pg/mL | Interferon-γ secreted to the culture medium ([3]; transfected DC from donor 1, T = 0 hours): >2000 pg/mL | Interferon-γ secreted to the culture medium ([3]; transfected DC from donor 2, T = 0 hours): >2000 pg/mL | Interferon-γ secreted to the culture medium ([3]; transfected DC, Lactacystin 0): 705 pg/mL | Interferon-γ secreted to the culture medium [3, 8]: 73 pg/mL | Interferon-γ secreted to the culture medium [3, 9]: 36 pg/mL | Interferon-γ secreted to the culture medium [3, 10]: >2000 pg/mL | Interferon-γ secreted to the culture medium ([3]; transfected or peptide-pulsed DC, Donor 1, T = 24 hours): >2000 pg/mL | Interferon-γ secreted to the culture medium ([3]; transfected or peptide-pulsed DC, Donor 1, T = 36 hours): >2000 pg/mL | Interferon-γ secreted to the culture medium [3, 11]: >2000 pg/mL | Interferon-γ secreted to the culture medium [3, 12]: 1808 pg/mL | Interferon-γ secreted to the culture medium [3, 13]: >2000 pg/mL | Interferon-γ secreted to the culture medium [3, 14]: >2000 pg/mL | Interferon-γ secreted to the culture medium [3, 15]: >2000 pg/mL | Interferon-γ secreted to the culture medium [3, 16]: >2000 pg/mL | Interferon-γ secreted to the culture medium [3, 17]: 1328 pg/mL | Interferon-γ secreted to the culture medium ([4]; Lactacystin 0): 188 pg/mL | Interferon-γ secreted to the culture medium ([4]; Lactacystin 25 μM): 85 pg/mL | Interferon-γ secreted to the culture medium ([4]; Lactacystin 50 μM): 16 pg/mL | Interferon-γ secreted to the culture medium ([5]; transfected DC from donor 1): 66 pg/mL | Interferon-γ secreted to the culture medium ([5]; transfected DC from donor 2): 132 pg/mL | T cell stimulation (IFN-γ secretion) ([6]; MART-1 specific T cell clone): stimulated | T cell stimulation (IFN-γ secretion) ([6]; clone recognizing gp100 epitope 280-288): also stimulated | T cell stimulation (IFN-γ secretion) ([6]; clones 209a and 209b reactive to gp100 epitope 209-217): highly stimulated | Interferon-γ secreted to the culture medium ([7]; transfected DC from donor 1, T = 0 hours, TIL 1940): >2000 pg/mL | Interferon-γ secreted to the culture medium ([7]; transfected DC from donor 2, T = 0 hours, TIL 1940): >2000 pg/mL | Interferon-γ secreted to the culture medium ([7]; transfected DC, Lactacystin 0, TIL1941): 432 pg/mL | Interferon-γ secreted to the culture medium ([7]; transfected DC, Lactacystin 25 μM, TIL1941): 62 pg/mL | Interferon-γ secreted to the culture medium ([7]; transfected DC, Lactacystin 50 μM, TIL1941): 45 pg/mL | Interferon-γ secreted to the culture medium ([7]; transfected or peptide-pulsed DC, Donor 1, T = 12 hours, TIL 1940): >2000 pg/mL | Interferon-γ secreted to the culture medium ([7]; transfected or peptide-pulsed DC, Donor 1, T = 24 hours, TIL 1940): >2000 pg/mL | Interferon-γ secreted to the culture medium ([7]; transfected or peptide-pulsed DC, Donor 1, T = 36 hours, TIL 1940): >2000 pg/mL | Interferon-γ secreted to the culture medium ([7]; transfected or peptide-pulsed DC, Donor 1, T = 48 hours, TIL 1940): >2000 pg/mL | Interferon-γ secreted to the culture medium ([7]; transfected or peptide-pulsed DC, Donor 1, T = 72 hours, TIL 1940): >2000 pg/mL | Interferon-γ secreted to the culture medium ([7]; transfected or peptide-pulsed DC, Donor 2, T = 12 hours, TIL 1940): >2000 pg/mL | Interferon-γ secreted to the culture medium ([7]; transfected or peptide-pulsed DC, Donor 2, T = 24 hours, TIL 1940): >2000 pg/mL | Interferon-γ secreted to the culture medium ([7]; transfected or peptide-pulsed DC, Donor 2, T = 36 hours, TIL 1940): >2000 pg/mL | Interferon-γ secreted to the culture medium ([7]; transfected or peptide-pulsed DC, Donor 2, T = 48 hours, TIL 1940): >2000 pg/mL | Interferon-γ secreted to the culture medium ([7]; transfected or peptide-pulsed DC, Donor 2, T = 72 hours, TIL 1940): >2000 pg/mL
